The values that follow come from publication PMC9859039, “The conserved centrosomin motif, γTuNA, forms a dimer that directly activates microtubule nucleation by the γ-tubulin ring complex (γTuRC)” (eLife, 2022).

No end group written: not given here. 3C = human rhinovirus 3C (PreScission) protease cleavage site; TEV = tobacco etch virus protease cleavage site; Strep‑His = not defined here

Data set [1] deals with γ-tubulin ring complex (γTuRC), endogenous Xenopus laevis, P23330;Q5U4M5. The experiment in a line: pull-down from Xenopus egg extract, western blot quantification. Conditions: control (beads) bar est. 0.19, read off a plot; for ratio to parent: parent: est. 1.0; for response: scale: normalized band intensity. (In general: Immunoblotting shows a protein as a band on a membrane.)

For data set [2], the target named is γ-tubulin ring complex (γTuRC), endogenous Xenopus laevis (Xenopus laevis (endogenous in egg extract)) (UniProt P23330).
The target is the same in data set [3]. The source holds these as a separate data set.
Data set [4] deals with Strep-His-TEV-HaloTag-3C-Xenopus γTuNA (Xenopus Cdk5rap2 aa 56–101), wildtype (Xenopus laevis). The experiment in a line: pull-down; depletion of Xenopus egg extract with Strep-His-Halo-Xenopus γTuNA-coupled beads, a single round; γ-tubulin left in the extract by western blot against mock-treated extract.
For data set [5], the target named is AU1-human γTuNA (from Strep-His-Halo-3C-AU1-human γTuNA after PreScission cleavage) (human). The experiment in a line: co-sedimentation; γTuRC pulled from egg extract on Halo-3C-AU1-human γTuNA beads, eluted by 3C cleavage, 10–50% w/w sucrose gradient (200,000 g, 2 °C, 3 hr); AU1 in the peak γTuRC fraction by western blot against a titration of AU1.
For data set [6], the target named is Strep-His-TEV-HaloTag-3C-Xenopus γTuNA I67A (Xenopus laevis). In words: pull-down; Halo-Magne beads coupled to N-terminally Halo-tagged γTuNA baits; 200 µL Xenopus egg extract + 800 µL CSFxB (2% sucrose), 2 hr at 4 °C, washed twice, boiled in SDS sample buffer; western blot of GCP5 and γ-tubulin, band intensities normalised to the wildtype bait.
The target of data set [7] is Strep-His-TEV-HaloTag-3C-Xenopus γTuNA L70A (Xenopus laevis). Described as above.
Data set [8] deals with the molecule itself. In words: SEC; Superdex 200 increase 10/300 GL, ~50 µM (monomer), CSFxB with 6 mM BME without sucrose, 4 °C, 0.7 mL/min; peak retention volumes compared.

Sequence of γ-tubulin ring complex (γTuRC), endogenous Xenopus laevis (Xenopus laevis (endogenous in egg extract)) (P23330 whole entry, looked up, one chain of several): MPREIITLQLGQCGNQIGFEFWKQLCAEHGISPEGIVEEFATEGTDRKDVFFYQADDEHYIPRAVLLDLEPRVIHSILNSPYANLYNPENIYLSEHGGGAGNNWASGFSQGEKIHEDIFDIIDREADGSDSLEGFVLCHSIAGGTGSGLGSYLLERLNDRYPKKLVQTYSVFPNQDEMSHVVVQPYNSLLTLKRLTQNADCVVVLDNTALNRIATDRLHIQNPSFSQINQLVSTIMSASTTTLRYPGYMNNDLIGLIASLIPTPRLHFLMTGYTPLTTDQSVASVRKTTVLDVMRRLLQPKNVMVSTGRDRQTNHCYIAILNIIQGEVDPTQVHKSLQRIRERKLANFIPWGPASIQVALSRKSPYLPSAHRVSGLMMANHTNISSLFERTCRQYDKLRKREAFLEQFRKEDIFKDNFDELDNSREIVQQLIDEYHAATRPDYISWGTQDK

Regarding “Strep-His-TEV-HaloTag-3C-Xenopus γTuNA (Xenopus Cdk5rap2 aa 56–101), wildtype F63A”, the ratio to parent in data set [1] (N=2) turned out to be 0.66. Regarding “Strep-His-TEV-HaloTag-3C-Xenopus γTuNA (Xenopus Cdk5rap2 aa 56–101), wildtype F75A”, the ratio to parent in data set [1] (N=2) came to 0.08. Moreover, the response in data set [1] (N=3, parent: est. 1.06) was 0.02.

On to “Strep-His-TEV-HaloTag-3C-Xenopus γTuNA (Xenopus Cdk5rap2 aa 56–101), wildtype I67D; L70D”, for which the response in data set [1] (N=3, parent: est. 1.06) came out at 0.01. Take “Strep-His-TEV-HaloTag-3C-Xenopus γTuNA (Xenopus Cdk5rap2 aa 56–101), wildtype L77A”: the ratio to parent in data set [1] (N=2) came out at 0.05.

For the molecule “Strep-His-TEV-HaloTag-3C-human γTuNA (human CDK5RAP2 aa 53–98), wildtype I67A; L70A”, the response in data set [1] (N=2, human wildtype not shown in this panel) worked out at 0.16. On to “Strep-His-TEV-HaloTag-3C-human γTuNA (human CDK5RAP2 aa 53–98), wildtype I67D; L70D”, for which, in data set [1] (N=3), the ratio to parent stood at 0.1. The same measure, in the same setting: in the case of “Strep-His-TEV-HaloTag-3C-human γTuNA (human CDK5RAP2 aa 53–98), wildtype I67D; L70D; L77D” it was 0.07. For the molecule “Strep-His-Xenopus γTuNA I67A (domain or fragment)”, the MT number (EB1 spots) in egg extract with 2 µM γTuNA, relative to wildtype γTuNA (% of wildtype) in data set [2] was 50. Still for that read-out and setting: the result for “Strep-His-Xenopus γTuNA L70A (domain or fragment)” reads 6.

Consider “Strep-His-Xenopus γTuNA, wildtype (domain or fragment)”, for which the MT number (EB1 spots) in Xenopus egg extract by TIRF, titration of γTuNA up to 3.6 µM, fold over buffer in data set [3] worked out at 75 fold. As for “γ-tubulin ring complex (γTuRC), endogenous Xenopus laevis (from UniProt P23330 1-451; Q5U4M5 1-72)”, the percent of γ-tubulin signal lost from the extract after one depletion in data set [4] is > 75%. This molecule registered a percent of purified γTuRCs that retain a γTuNA dimer in data set [5] of 33%. The γTuRC pulled down, percent of wildtype in data set [6] was found to be 67%; in data set [7] it was 35%.

B1: Strep-His-TEV-HaloTag-3C-Xenopus γTuNA (Xenopus Cdk5rap2 aa 56–101), wildtype (domain or fragment, Xenopus laevis)
chain: {Strep‑His-TEV-HaloTag-3C}-MKDFEKQIAELKKENFNLKLRIYFLEEQVQQKCDNSSEDLYRMNIE
modifications: reading uncertain
notes: γTuNA (CM1) domain of Xenopus laevis Cdk5rap2 isoform X1 (905 aa), aa 56–101; TEV and PreScission (3C) cleavage sites lie between the tags and γTuNA; also called Halo-Xenopus γTuNA; Strep-His-Halo-Xenopus γTuNA; source: E. coli Rosetta 2 (DE3), purified (Strep-Tactin); not shown: StrepTagII, N-terminal, kept; 6xHis, N-terminal, kept; HaloTag, N-terminal, kept
Regarding B1, the stoichiometry N (usually the number of molecules, sites or subunits per partner or assembly) in data set [8] worked out at 2.

B2: Strep-His-TEV-HaloTag-3C-human γTuNA (human CDK5RAP2 aa 53–98), wildtype (domain or fragment)
chain: {Strep‑His-TEV-HaloTag-3C}-SPTRARNMKDFENQITELKKENFNLKLRIYFLEERMQQEFHGPTEH
modifications: reading uncertain
notes: γTuNA (CM1) domain of human CDK5RAP2 isoform A (1893 aa), aa 53–98; TEV and PreScission (3C) cleavage sites lie between the tags and γTuNA; also called Halo-human γTuNA; human wildtype Halo-γTuNA; source: E. coli Rosetta 2 (DE3), purified (Strep-Tactin); not shown: StrepTagII, N-terminal, kept; 6xHis, N-terminal, kept; HaloTag, N-terminal, kept
On to B2, for which the “stoichiometry N” value in data set [8] was 2.

B3: Strep-His-TEV-HaloTag-3C-Xenopus γTuNA F75A (Xenopus F71A) (domain or fragment, Xenopus laevis)
chain: {Strep‑His-TEV-HaloTag-3C}-MKDFEKQIAELKKENANLKLRIYFLEEQVQQKCDNSSEDLYRMNIE
modifications: reading uncertain
notes: γTuNA of Xenopus laevis Cdk5rap2 isoform X1, aa 56–101; it is F71 in Xenopus; also called Halo-Xenopus γTuNA F75A; Xenopus F75A mutant; source: E. coli Rosetta 2 (DE3), purified (Strep-Tactin); not shown: StrepTagII, N-terminal, kept; 6xHis, N-terminal, kept; HaloTag, N-terminal, kept
B3: in data set [8], the binding result is “binds”.
